Experimental data taken from patent publication US20240052042A1 (Novartis, published 2024).
Positions count from the first letter of the chain named.

Tests used:
human NPR2 on CHO cells = molecular target: T1, human NPR2 on CHO cells (human, UniProt P20594 23-1047); assay: cell-based or functional assay
T1 sequence (looked up): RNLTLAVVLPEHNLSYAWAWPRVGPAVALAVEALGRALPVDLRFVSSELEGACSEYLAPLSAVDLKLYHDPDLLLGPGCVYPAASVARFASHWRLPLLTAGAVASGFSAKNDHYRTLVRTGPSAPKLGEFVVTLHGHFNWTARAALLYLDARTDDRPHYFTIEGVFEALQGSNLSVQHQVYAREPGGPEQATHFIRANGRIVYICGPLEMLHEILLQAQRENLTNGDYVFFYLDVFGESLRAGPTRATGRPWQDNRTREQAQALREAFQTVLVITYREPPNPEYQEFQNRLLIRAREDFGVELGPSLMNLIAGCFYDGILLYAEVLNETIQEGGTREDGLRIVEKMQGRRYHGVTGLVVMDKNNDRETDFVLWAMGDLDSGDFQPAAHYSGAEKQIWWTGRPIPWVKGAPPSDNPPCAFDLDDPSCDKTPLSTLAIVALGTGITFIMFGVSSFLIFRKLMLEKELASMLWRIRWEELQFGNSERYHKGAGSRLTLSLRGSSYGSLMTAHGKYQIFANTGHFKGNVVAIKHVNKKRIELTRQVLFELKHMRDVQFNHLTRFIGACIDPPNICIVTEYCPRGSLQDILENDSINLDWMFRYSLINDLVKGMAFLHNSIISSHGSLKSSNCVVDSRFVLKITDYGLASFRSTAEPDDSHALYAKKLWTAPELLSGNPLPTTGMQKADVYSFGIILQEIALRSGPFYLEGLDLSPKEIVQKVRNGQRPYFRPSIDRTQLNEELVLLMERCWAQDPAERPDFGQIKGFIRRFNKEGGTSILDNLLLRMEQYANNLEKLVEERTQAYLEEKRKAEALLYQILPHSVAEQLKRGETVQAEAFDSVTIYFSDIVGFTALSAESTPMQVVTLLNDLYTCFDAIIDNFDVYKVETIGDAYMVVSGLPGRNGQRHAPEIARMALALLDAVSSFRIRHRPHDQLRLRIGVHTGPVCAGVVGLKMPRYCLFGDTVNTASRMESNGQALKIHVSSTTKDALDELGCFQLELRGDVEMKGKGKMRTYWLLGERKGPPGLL

[1] = molecular target: T2, human Natriuretic Peptide Receptor 1 (hNPR1) (human, UniProt P16066 33-473, limits assumed); assay: SET, FabCys
T2 construct: pannings used NPR1-hFc; also called NPR1-hFc
T2 sequence: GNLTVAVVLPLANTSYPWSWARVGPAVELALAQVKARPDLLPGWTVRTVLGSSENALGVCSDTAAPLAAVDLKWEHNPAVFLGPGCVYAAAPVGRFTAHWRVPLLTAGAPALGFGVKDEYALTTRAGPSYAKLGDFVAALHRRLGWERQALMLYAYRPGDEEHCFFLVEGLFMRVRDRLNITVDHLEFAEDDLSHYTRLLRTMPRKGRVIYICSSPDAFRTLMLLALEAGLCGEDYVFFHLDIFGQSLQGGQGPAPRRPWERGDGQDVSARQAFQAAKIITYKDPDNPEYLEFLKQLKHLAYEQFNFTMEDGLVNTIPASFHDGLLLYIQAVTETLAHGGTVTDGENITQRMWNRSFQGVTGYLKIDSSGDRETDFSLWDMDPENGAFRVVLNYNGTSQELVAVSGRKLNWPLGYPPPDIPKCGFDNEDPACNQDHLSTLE

hNPR1-ANP complex = molecular target: T3, hNPR1-ANP complex (human, UniProt P01160 124-151, limits assumed); assay: SET, FabCys
T3 construct: hNPR1 antigen in the presence of ANP; also called hNPR1 + 100 nM ANP
T3 sequence: T2 sequence
T3 sequence (peptide): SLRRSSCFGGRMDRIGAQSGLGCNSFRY

rat NPR1 (rNPR1) = molecular target: T4, rat NPR1 (rNPR1) (rat, UniProt P18910 29-469, limits assumed); assay: SET, FabCys
T4 construct: Soluble antigen
T4 sequence: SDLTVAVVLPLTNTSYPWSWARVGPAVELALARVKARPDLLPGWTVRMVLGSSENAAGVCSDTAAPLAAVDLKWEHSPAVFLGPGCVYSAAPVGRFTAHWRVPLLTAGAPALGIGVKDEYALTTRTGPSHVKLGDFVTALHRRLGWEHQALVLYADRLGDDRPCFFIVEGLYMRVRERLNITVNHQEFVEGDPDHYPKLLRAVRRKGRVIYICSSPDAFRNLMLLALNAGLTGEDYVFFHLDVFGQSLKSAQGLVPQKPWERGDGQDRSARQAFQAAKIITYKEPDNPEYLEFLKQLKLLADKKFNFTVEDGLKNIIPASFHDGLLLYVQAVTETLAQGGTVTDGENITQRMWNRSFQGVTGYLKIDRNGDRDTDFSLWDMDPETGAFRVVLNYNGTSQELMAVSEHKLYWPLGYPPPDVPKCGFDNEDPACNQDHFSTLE

rNPR1-ANP complex = molecular target: T5, rNPR1-ANP complex (rat, UniProt P01160 124-151 (human entry), limits assumed); assay: SET, FabCys
T5 construct: rNPR1 antigen in the presence of ANP; also called rNPR1 + 100 nM ANP
T5 sequence: T4 sequence
T5 sequence (peptide): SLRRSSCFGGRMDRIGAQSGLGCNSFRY

B1: XX15 (IgG) (antibody, V domains shown)
VH: EVQLLESGGGLVQPGGSLRLSCAASGFTFSSYWMNWVRQAPGKGLEWVSVIESKGNYIFYADSVKGRFTISRDNSKNTLYLQMNSLRAEDTAVYYCARDRYSMIYSYGAGAFDYWGQGTLVTVSS
VL: DIQMTQSPSSLSASVGDRVTITCRASQGISSYLAWYQQKPGKAPKLLIYTASTLQSGVPSRFSGSGSGTDFTLTISSLQPEDFATYYCQQEWVKPRTFGQGTKVEIK
Human NPR2 on CHO cells
  cGMP generation EC50: > 500 nM
  cGMP generation Y max (% of ANP): < 1 % of ANP

B2: XX18 (IgG) (antibody, V domains shown)
VH: B1 VH
VL: B1 VL with V93A
Human NPR2 on CHO cells
  cGMP generation EC50: > 500 nM
  cGMP generation Y max (% of ANP): < 1 % of ANP

B3: ZZ05 (FabCys format) (Fab, V domains shown)
VH: EVQLVQSGAEVKKPGESLKISCKGSGYSFTSYWISWVRQMPGKGLEWMGIIYPGTSYTRYSPSFQGQVTISADKSISTAYLQWSSLKASDTAMYYCARGSLPGLLGFDHWGQGTLVTVSS
VL: QSVLTQPPSVSGAPGQRVTISCTGSSSNIGAGYDVHWYQQLPGTAPKLLIYGNSNRPNGVPDRFSGSKSGTSASLAITGLQAEDEADYYCQSYGAFPRFVVFGGGTKLTVL
notes: Monovalent FabCys
[1]
  Kd: 0.74 nM
hNPR1-ANP complex
  Kd: 1.2 nM

B4: ZZ17 (FabCys format) (Fab, V domains shown)
VH: EVQLLESGGGLVQPGGSLRLSCAASGFTFSDYAISWVRQAPGKGLEWVSSISGGGYHTQYAGSVKGRFTISRDNSKNTLYLQMNSLRAEDTAVYYCARPYLGDRRSYGFDHWGQGTLVTVSS
VL: QSALTQPASVSGSPGQSITISCTGTSSDVGSYNLVSWYQQHPGKAPKLMIYEGSKRPSGVSNRFSGSKSGNTASLTISGLQAEDEADYYCSSYGFHIVVVVFGGGTKLTVL
notes: Monovalent FabCys
Rat NPR1 (rNPR1)
  Kd: 52 nM
rNPR1-ANP complex
  Kd: 36 nM
